In the experiment the target is CAR (coxsackie and adenovirus receptor) (human) (UniProt P78310). Briefly: cell-based or functional assay.
Chain of UniProt P78310 (P78310 20-365): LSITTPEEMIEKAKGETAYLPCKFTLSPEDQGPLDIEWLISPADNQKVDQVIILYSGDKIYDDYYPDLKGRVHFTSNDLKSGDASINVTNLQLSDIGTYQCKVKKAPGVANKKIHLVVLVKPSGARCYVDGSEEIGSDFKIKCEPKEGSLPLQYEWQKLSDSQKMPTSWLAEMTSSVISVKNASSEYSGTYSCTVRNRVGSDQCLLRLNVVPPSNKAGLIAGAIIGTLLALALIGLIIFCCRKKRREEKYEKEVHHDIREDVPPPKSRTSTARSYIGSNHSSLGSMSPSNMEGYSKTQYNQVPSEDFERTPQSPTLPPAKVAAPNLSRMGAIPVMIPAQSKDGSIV

For “CAR-specific fiber protein (fiber protein of adenovirus) (ligand)”, the reduction of GFP transduction of U343 cells by naked type Ad (MOI 20) after pretreatment with fiber protein at 0.2 µg/ml, flow cytometry amounted to 67 % reduced and the reduction of GFP transduction of U343 cells by naked type Ad (MOI 20) after pretreatment with fiber protein at 2 µg/ml, flow cytometry was determined as 90 % reduced.

For the origin of these results see patent publication US20220090025A1.
